{"source": "patent US20100087363A1", "about": "(YEDA RESEARCH AND DEVELOPMENT, published 2010)", "binders": {"B1": {"name": "recombinant human soluble LDL receptor, amino acid residues 25-352 of the LDLR precursor, expressed in CHO cells (receptor)", "chain": "not shown", "modifications": "N-glycosylated at Asn 272 of the LDLR precursor", "notes": "range 25-352; Produced in DHFR-deficient CHO cells (InterPharm Laboratories); also called sLDLR; r-hsLDLR"}}, "biological_target": "T1, LDL (low density lipoprotein; Biomedical Technologies, Inc) (UniProt P04114 28-4563)", "T1 construct": "LDL is a lipoprotein particle (avg. mass 2.5x10^6 Da) of lipid and protein, not a pure protein", "experiment": "size exclusion chromatography (Superose 6) of a pre-incubated LDL + sLDLR mix (7 micromolar each); ratio of bound and free sLDLR peaks by sLDLR ELISA, assuming 5-fold dilution", "procedure": "Therefore, we employed another method for testing the binding of sLDLR to LDL. For this purpose, we incubated for 1 h at 37° C. a solution of LDL (Biomedical technologies, Inc, Ma, USA) and r-hsLDLR of Example 5 at a final concentration of 7 micromolar each in PBS plus 10 micromolar Calcium Chloride (PBS+). An aliquot of 0.1 ml was subjected to size exclusion chromatography on a Superose 6 HR 10/30 column (GE Healthcare Life Sciences Cat. No 17-5172-01). The column was eluted with PBS+ at a flow rate of 0.4 ml/min and fractions of 0.5 ml were collected. The concentration of r-hsLDLR was determined by a specific ELISA as follows:\nMab #28 anti-human sLDLR (5 microgram/ml in PBS; corresponding to Mab from hybridoma clone 28 deposited at the CNCM under No. 1-2391-U.S. Pat. No. 6,849,720) was used for coating of 96-well ELISA plates at 0.1 ml/well overnight at room temperature. The plates were then washed ×3 with PBS containing 0.05% Tween-20 and then blocked by 0.3 ml blocking buffer (1% bovine serum albumin, 5% sucrose, 0.05% sodium azide in PBS). The plates were then washed 3× with PBS. […] The plated were then washed 3× with reagent diluent, a substrate solution (0.1 ml TMB/E, Chemicon) is added to each well and the plates were either read within 5 min at 630 nm or stopped with H₂SO₄ (2 N 0.05 ml) and read at 450 nm."}
{"binder": "B1", "values": [{"measurement": "Kd", "value": "~10", "unit": "nM"}]}
